Among the data in paper PMC11770808, “Interplay between conformational dynamics and substrate binding regulates enzymatic activity: a single-molecule FRET study” (Chemical Science, 2025) are Km values, retold here.

For the data set, the system named is T1, Nc1ncnc2c1ncn2[C@@H]1O[C@H](COP(=O)(O)OP(=O)(O)O)[C@@H](O)[C@H]1O.
T1 construct: purified recombinant, details only in ESI
Description: coupled assay (hexokinase / glucose-6-phosphate dehydrogenase), initial velocities fitted to Michaelis-Menten. The format is biochemical, Escherichia coli. Conditions: backward reaction, 0 M urea, dye-labelled enzyme (A73C/V142C background inferred), 50 mM Tris-HCl pH 8.0, 100 mM KCl, 10 mM MgCl2.

Regarding “adenylate kinase (AK), wild-type (WT) (Escherichia coli K-12; A73C/V142C)”, the Km was 1340(±98) µM.
